Experimental findings from US8039438B2, “Synthetic peptides that cause F-actin bundling and block actin depolymerization” (The Regents of the University of California, priority 2003, dated 2011) are described below.

Entries after “also recorded” stand apart in the source; their conditions may differ.

In test [1] the test system is actin comet tails in Xenopus egg extracts. Kind of test: Actin comet-tail formation in cytoplasmic extracts. The class given is biochemical, Xenopus laevis. Conditions: for effect on actin comet tails: FIGS. 4C, 4D, 4F, concentration not given. Here is the method:
In FIGS. 4A and 4B, in vitro polymerized actin forms comet tail from rhodamine-labeled actin added to Xenopus laevis egg cytoplasmic extract. This was set up according to the protocol in Taunton et al., J Cell Biol. 2000 Feb. 7; 148(3):519-30.
Crude Xenopus egg extract was prepared as described except that cytochalasin D was omitted (Murray and Kirschner, Nature. 1989 May 25; 339(6222):275-80). Cytosol and a heavy membrane fraction were prepared by centrifugation of the crude extract (2 h, 300.000 g max; BECKMAN SW-50 rotor). The viscous glycogen pellet beneath the membrane layer was discarded. Cytosol was further clarified by spinning for 15 min at 541,000 g max (BECKMAN TLA 100.3 rotor). Crude membranes (diluted with one volume of 2 M sucrose) and cytosol were snap frozen in separate aliquots for storage at −80° C. unless otherwise indicated. Clarified cytosol contained a small population of vesicles, but motility assays were far more robust (more comet tails over a longer time period) when cytosol was supplemented with the heavy membrane fraction.
For the standard assay, crude membranes in 1 M sucrose (20-μl aliquot, derived from ˜80 μl crude extract) were washed and resuspended in 14 μl buffer A (50 mM NaCl, 5 mM MgCl2, and 50 mM tris [pH 7.5]). To the membrane suspension were added 35 μl cytosol (derived from ˜80 μl crude extract), 0.3 μl rhodamine-labeled actin (prepared according to Kellogg et al., Development. 1988 August; 103(4):675-86), 3 μl PMA (20 μM stock in 10% DMSO), and 20 μl buffer A at 4° C. 20-μl samples were then warmed to room temperature. After 30-40 min, 2-μl aliquots were viewed with a Nikon E800 microscope to yield the photomicrographs of FIG. 4. Images were acquired with a Princeton Instruments cooled CCD camera (standard rhodamine filter set, Princeton Instruments, Trenton, N.J.) and analyzed with WINVIEW (Visitron System, Puchheim, Germany) or METAMORPH software (Princeton Instruments, Trenton, N.J.). Pixels having an intensity over a threshold value (set to a value greater than the background fluorescence in regions devoid of comet tails) were summed over 10 random fields to quantitate relative actin assembly.
Cytosol was supplemented with a crude membrane fraction, rhodamine-actin, 1 μM PMA and peptide SS2 or SS12 (1 μM). After incubating at room temperature for 20 min, samples were viewed by fluorescence. Actin comet tails formed in Xenopus cytoplasmic extracts where no SS2 or SS12 peptides were added as shown by the photographs A, B and E of FIG. 4.

The target of the next test is T1, rabbit muscle actin (Oryctolagus cuniculus, UniProt P68135).
T1 construct: Purified rabbit muscle actin (Cytoskeleton Inc., Denver, Mo.); purchased Cytoskeleton Inc; host or cells: rabbit muscle
Kind of test: In vitro bundling of actin by peptides (co-polymerization, differential centrifugation, SDS gel). It is filed as biochemical. Conditions: for activity designation of the peptide in the sequence list (active / less active / inactive): summary sequence table; for bundled actin upon inducing polymerization: polymerization induced (PI +); for In vitro actin bundling activity: Tables 2 and 3, peptide co-polymerized with actin in vitro. Here is the method:
The peptides in Table 2 were added to polymerised actin in vitro at different molar ratios. Centrifugation was used to separate fractions containing F-actin, G-actin and bundled actin, which were then run out on […]. Purified rabbit muscle actin (Cytoskeleton Inc., Denver, Mo.) was depolymerized in Low Salt Buffer [LSB; 5 mM Tris-HCl, pH 8.0, 0.2 mM CaCl2, 0.2 mM ATP, 0.5 mM DTT, mM sucrose) for 1 h on ice and denucleated by centrifugation for 1 h at 100,000×g, 4° C. 13 μM monomeric actin was polymerized in vitro by addition of 1/50 vol. […] The samples were centrifuged for 15 min at 10,000×g at room temperature to pellet “bundled filaments”. The resulting supernatant was centrifuged for 1 h at 100,000×g at room temperature to separate F-actin filaments […]. The fractions were boiled in SDS-sample buffer and analyzed on a 10% SDS-Polyacrylamide gel stained with Coomassie.

The test system of test [2] is Embryos from Xenopus laevis. In words: Actin-dependent cleavage in embryos injected with peptide. The class given is in vivo. Conditions: 0.6 mg/mL final concentration in egg; for effect on cell division of embryos: injected, fixed at 8-cell stage. From the text: Referring now to photographs of FIG. 3 the peptides have a severely abnormal effect on the embryonic development of cells. […] The embryos resemble the uninjected normal embryos of FIG. 3A
The resulting blastomeres were unable to regain function and were severely abnormal showing abortive cleavage furrows.
However, in the embryos injected with the active peptide (FIG. 3F), filamentous actin is seen in the abortive cleavage furrows.

The test system of a further test is MDA 231 cells. In words: Actin reorganization in MDA 231 cells electroporated with peptide, rhodamine-phalloidin stained. The class given is cell-based, human. To be noted: MDA 231 cells electroporated with peptide. Here is the method:
Referring now to FIG. 2, it can be shown that treatment with an active peptide results in actin organization in human mammary epithelial tumor cells. MDA 231 cells were electroporated with SS1 (panel A) or SS12 (panel B), fixed, and rhodamine-phalloidin stained. Control epithelial tumor cells were treated with SS1 (SEQ ID NO: 9) resulting in no effect on actin-filled lamellipodia (or ruffling) characteristic of crawling cells.
MDA 231 cells are a particularly aggressive tumor cell line crawling and moving from between tissues.

Test [3] deals with dextran-labeled electroporated cells. In words: Change in number of dextran-labeled cells after electroporation with peptide. The class given is cell-based. Conditions: dextran-labeled cells counted before and after 18 hrs incubation. Here is the method: Electroporated cells were treated with fluorescent dextran plus peptide so those cells receiving the peptide could be identified. Typically a very small number of cells successfully incorporate substance during electroporation, making it difficult to identify those receiving peptide. Typically one sees 10-20% incorporation. But, there is good evidence showing that if a cell incorporates one component in buffer, it will incorporate all components. Thus, dextran can be used to identify those cells receiving peptide. After electroporation of cells with fluorescent dextran and the active peptide SEQ ID NO: 12, the dextran-labeled cells were initially counted and then incubated for 18 hrs. After incubation overnight, the dextran-labeled cells were once again counted. The following Tables 4 and 5 show the average change in dextran-labeled cells after the cells are electroporated and the peptide has invaded the cell body. The cell numbers of the SS12 treated peptide seemed to fluctuate after incubation with various concentrations of the SS12 peptide.

Test [4] concerns the target T2, rabbit muscle aldolase with actin (Oryctolagus cuniculus, UniProt P68135).
T2 construct: presence (lanes 4-6) of rabbit muscle actin (2 nmol); purchased Sigma (aldolase); host or cells: rabbit muscle
In words: Aldolase co-precipitation with polymerized actin. It is filed as biochemical. To be noted: 1 nmol aldolase, 100 nmol peptide. An excerpt:
Referring now to FIG. 7, since the SS2 sequence is specific to SuSy protein (with SS2 having some similarity to actin), we tested its effect on the well-known interaction of rabbit muscle aldolase with actin (Winter et al. 1998, Rabbit muscle aldolase was purchased from Sigma). Phalloidin could potentially interfere with the peptides of the invention since both drugs affect actin.
Addition of SS2 peptide had no effect on aldolase precipitation in the absence of actin (FIG. 7A), but increased the amount of aldolase co-precipitating with polymerized actin (FIG. 7B). Although binding of aldolase to actin is not sucrose dependent as shown for SuSy, the presence of Sucrose in the polymerization assay caused an additional increase in the amount of aldolase bound to polymerized actin as shown by lane 6 in FIG. 7B. Rabbit muscle aldolase (1 nmol) was incubated in the absence (lanes 1-3) or presence (lanes 4-6) of rabbit muscle actin (2 nmol).

Where [5] appears, read: 1:1 molar ratio peptide:actin, FIGS. 6C, 6D.

In the case of “ENGIVRKWISRFEVW (synthetic peptide derived from Zea mays SuSy2 protein 357-389) [SEQ ID NO: 3, Zea mays SuSy2 375-389]”, the “effect on actin comet tails” value in test [1] is reported as “complete disruption of the comet tails”.
On to “GDRVLSRLHSVRERIGK (synthetic SS1 inactive control peptide) [reference compound]”, for which the “activity designation of the peptide in the sequence list (active / less active / inactive)” value with rabbit muscle actin is “SS1 inactive”. The “effect on cell division of embryos” value in test [2] is on record as “no effect”. Besides, the “effect on actin-filled lamellipodia” value with MDA 231 cells is “no effect”. For the same sequence, the “% change in cell number” value in test [3] is “+45.0%”; in test [3] (peptide concentration 0.2 μM), “+1.2%”; in test [3] (peptide concentration 1.0 μM) it was “+17.4%”; in test [3] (peptide concentration 10.0 μM) it was “+43.8%”.
“GIVRKAISRFEVAPYL (SS15 less active synthetic peptide)”: in the test with rabbit muscle actin (setting [5]), the “bundled actin upon inducing polymerization” value was “did not cause bundled actin”. Also, in the test with rabbit muscle actin, the “In vitro actin bundling activity” value is “less active” and the “activity designation of the peptide in the sequence list (active / less active / inactive)” value is listed as “SS15 less active”. In addition, the “form of polymerised actin” value with rabbit muscle actin (molar ratio peptide:actin 10:1 and 100:1, added to unpolymerized actin, FIG. 6E) is listed as “predominantly in the bundled form”.
Consider “GIVRKWISRFEVWPYLKK (SS2 active peptide based on Zea mays SuSy 377- 392)”, for which, in the test with rabbit muscle actin, the “bundling of actin during in vitro polymerization” value (“bundling of actin during” for short) is listed as “most active”, the “In vitro actin bundling activity” value was “active” and the “activity designation of the peptide in the sequence list (active / less active / inactive)” value is on record as “SS2 active”. Further, in the test with rabbit muscle actin (2 nmol actin polymerized 30 min, then 0, 1, 2, 4 and 20 nmol peptide for 30 min, FIG. 6B), the “bundling of already polymerized (filamentous) actin” value is listed as “Only the highest concentration of SS2 caused bundling”. Moreover, the “bundled actin upon inducing polymerization” value with rabbit muscle actin (setting [5]) is “the bulk of the actin is bundled”. For the same sequence, the “bundled actin with peptide alone” value with rabbit muscle actin (1:1 molar ratio peptide:actin, polymerization not induced, FIGS. 6C, 6D) is on record as “half of the actin bundled”. In the test with rabbit muscle actin (FIG. 7), the “effect of phalloidin on bundling activity of the peptide” value is “not affected”. In the test with rabbit muscle actin (added to unpolymerized actin, molar ratio peptide to actin 0.5, FIG. 6A), the “distribution of actin between bundled and F-actin fraction” value is “half-bundled and half-F-actin”. In test [2] (divisions typically an hour apart), the “lasting effect on cell division” value is given as “at least 3 divisions”. In addition, the “effect on cell division of embryos” value in test [2] is given as “block several cell divisions”. Further, the “effect on actin comet tails” value in test [1] is “complete disruption of the comet tails”. In addition, the “actin comet tail formation” value in test [1] (peptide 1 μM, 1 μM PMA, 20 min at room temperature) is “little or no actin comet tail formation”. Besides, the “amount of aldolase co-precipitating with polymerized actin” value in test [4] (2 nmol actin, FIG. 7B) was “increased”. Also, the “aldolase precipitation in the absence of actin” value in test [4] (FIG. 7A) was “no effect”.
As to “GPTLKRTASTAFMNTTSKK (NR11 inactive synthetic peptide) [reference compound]”, in the test with rabbit muscle actin, the “In vitro actin bundling activity” value was “inactive” and the “activity designation of the peptide in the sequence list (active / less active / inactive)” value is “NR11 inactive”.
As for “GRMRRIATVEMMKK (SP26 inactive synthetic peptide) [reference compound]”, in the test with rabbit muscle actin, the “bundling of actin during” value is recorded as “not able to bundle actin filaments in vitro”, the “In vitro actin bundling activity” value was “inactive” and the “activity designation of the peptide in the sequence list (active / less active / inactive)” value was “SP26 inactive”.
Regarding “ILRVPFRTENGIVRK (SS11 inactive synthetic peptide)”, in the test with rabbit muscle actin, the “bundling of actin during” value is recorded as “not effective in bundling; also recorded: did not cause actin to bundle”, the “In vitro actin bundling activity” value was “inactive” and the “activity designation of the peptide in the sequence list (active / less active / inactive)” value was “SS11 inactive”. In addition, the “bundled actin upon inducing polymerization” value with rabbit muscle actin (setting [5]) is “do not produce bundled actin”.
“RRISSVEDKK (SP3 inactive synthetic peptide) [reference compound]”: the “bundled actin upon inducing polymerization” value with rabbit muscle actin (setting [5]) is on record as “do not produce bundled actin”. For the same sequence, in the test with rabbit muscle actin, the “In vitro actin bundling activity” value was “inactive” and the “activity designation of the peptide in the sequence list (active / less active / inactive)” value is “SP3 inactive”.
Turning to “WISRFEVW (Small block of SS12 sequence required for less active synthetic peptide) [SMIN]”, in the test with rabbit muscle actin, the “In vitro actin bundling activity” value was “less active” and the “activity designation of the peptide in the sequence list (active / less active / inactive)” value is “SMIN less active”.
